The results in this text go back to the Immune Epitope Database (IEDB).

Broadly, the IC50 is the point on the concentration scale where inhibition reaches its midpoint. In general, Kd refers to a measure of binding affinity in units of concentration.

Details in all cases: source organism: Homo sapiens
One assay deals with HLA-A*03:01. The experiment in a line: IEDB peptide-MHC binding, purified MHC/competitive/radioactivity; ≥ and ≤ were set here for values at or beyond the usual limits of such assays.
The target of another assay is HLA-A*11:01. Described as above.
In a further assay the target is HLA-A*68:01. The experiment in a line: IEDB peptide-MHC binding, purified MHC/competitive/radioactivity; filed as Kd, often an IC50 or EC50 that approximates it; ≥ and ≤ were set here for values at or beyond the usual limits of such assays.
In another assay the target is HLA-A*31:01. Described as above.
The target in the next assay is HLA-A*33:01. Described as above.

On to LIYRRRLMK, for which the IC50 in the assay with HLA-A*03:01 was found to be 5.5 nM.
On the same count and under the same terms, the figure for QLVLHQILK is 52.4 nM.
Same read-out and setting: the figure for SLIYRRRLMK is 39.3 nM.
In the case of IALNFPGSQK, the IC50 with HLA-A*11:01 amounted to 316 nM; with HLA-A*03:01, 36.7 nM. Also, the Kd in the assay with HLA-A*68:01 was 4700 nM; with HLA-A*31:01, ≥ 10000 nM; with HLA-A*33:01, ≥ 10000 nM.
Regarding ALNFPGSQK, the IC50 was determined as 4.6 nM in the assay with HLA-A*11:01 and 8.5 nM in the assay with HLA-A*03:01. Further, the Kd in the assay with HLA-A*68:01, with HLA-A*31:01 and in the assay with HLA-A*33:01 was ≥ 10000 nM in each case.
